Here are results for two molecules from US20150203575A1 (Genentech, published 2015).

Read-outs that look alike come from different tables or passages of the source.

Assay [1] has as its target T1, human COLEC12 expressed on cells (human, UniProt Q5KU26 1-742).
T1 construct: also called hCOLEC12; C-terminal his tagged hCOLEC12
Put plainly: flow cytometry, transfected 293T cells. In general terms: In flow cytometry, cells or beads pass a laser one at a time.

In assay [2] the target is T2, MAG expressed on cells (human, UniProt P20916 20-626).
T2 construct: Clone of the Origene human cDNA library; also called Myelin associated glycoprotein; SIGLEC4A
T2 sequence: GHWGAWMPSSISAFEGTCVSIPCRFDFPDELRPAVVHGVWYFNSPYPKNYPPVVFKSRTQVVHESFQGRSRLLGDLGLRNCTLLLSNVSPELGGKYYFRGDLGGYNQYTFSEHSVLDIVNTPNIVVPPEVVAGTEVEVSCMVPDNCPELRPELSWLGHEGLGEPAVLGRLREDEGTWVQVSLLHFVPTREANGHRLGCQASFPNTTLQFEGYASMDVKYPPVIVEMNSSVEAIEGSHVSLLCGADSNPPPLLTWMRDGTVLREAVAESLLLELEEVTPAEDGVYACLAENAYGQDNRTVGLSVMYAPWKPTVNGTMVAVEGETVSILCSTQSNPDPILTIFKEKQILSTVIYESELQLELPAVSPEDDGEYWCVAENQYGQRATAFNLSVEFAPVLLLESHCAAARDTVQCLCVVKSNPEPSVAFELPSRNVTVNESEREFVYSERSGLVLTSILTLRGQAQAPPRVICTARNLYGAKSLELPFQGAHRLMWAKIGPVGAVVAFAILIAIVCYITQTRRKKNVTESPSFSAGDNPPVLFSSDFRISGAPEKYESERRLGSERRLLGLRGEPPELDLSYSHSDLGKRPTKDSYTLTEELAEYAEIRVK
Description: flow cytometry, transfected 293T cells.

The target in assay [3] is T3, LRRTM4 expressed on cells (human, UniProt Q86VH4 31-590).
T3 construct: Clone of the Origene human cDNA library; also called Leucine rich repeat transmembrane neuronal 4
Put plainly: flow cytometry, transfected 293T cells.

Assay [4] concerns the target T4, IL-2Ra expressed on cells (human, UniProt P01589 22-272).
T4 construct: Clone of the Origene human cDNA library; also called Interleukin 2 receptor alpha
T4 sequence: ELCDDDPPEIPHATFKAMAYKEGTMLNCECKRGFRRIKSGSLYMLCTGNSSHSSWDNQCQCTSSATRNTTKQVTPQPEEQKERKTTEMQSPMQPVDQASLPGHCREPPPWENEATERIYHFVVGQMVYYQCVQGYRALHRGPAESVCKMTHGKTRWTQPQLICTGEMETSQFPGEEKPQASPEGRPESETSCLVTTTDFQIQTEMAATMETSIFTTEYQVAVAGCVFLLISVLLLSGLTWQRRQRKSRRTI
Put plainly: flow cytometry, transfected 293T cells.

Assay [5] deals with T5, PSS8 expressed on cells (human, UniProt Q16651 30-343).
T5 construct: Clone of the Origene human cDNA library; also called Protease serine 8; prostasin
Description: flow cytometry, transfected 293T cells.

In assay [6] the target is T6, CLEC4G expressed on cells (human, UniProt Q6UXB4 1-293).
T6 construct: Clone of the Origene human cDNA library; also called C type lectin superfamily 4 member G
T6 sequence: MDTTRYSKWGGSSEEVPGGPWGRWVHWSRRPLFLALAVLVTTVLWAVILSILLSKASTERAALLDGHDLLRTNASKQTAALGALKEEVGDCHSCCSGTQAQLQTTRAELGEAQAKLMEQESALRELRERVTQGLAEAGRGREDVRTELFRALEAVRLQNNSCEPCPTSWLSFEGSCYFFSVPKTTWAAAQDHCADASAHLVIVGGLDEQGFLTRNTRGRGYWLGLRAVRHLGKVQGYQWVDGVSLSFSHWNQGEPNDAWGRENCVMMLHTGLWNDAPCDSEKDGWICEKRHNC
Put plainly: flow cytometry, transfected 293T cells, 50 µg/ml.

Assay [7] has as its target T7, FceRII expressed on cells (human, UniProt P06734 1-321).
T7 construct: Clone of the Origene human cDNA library; also called FcRII
T7 sequence: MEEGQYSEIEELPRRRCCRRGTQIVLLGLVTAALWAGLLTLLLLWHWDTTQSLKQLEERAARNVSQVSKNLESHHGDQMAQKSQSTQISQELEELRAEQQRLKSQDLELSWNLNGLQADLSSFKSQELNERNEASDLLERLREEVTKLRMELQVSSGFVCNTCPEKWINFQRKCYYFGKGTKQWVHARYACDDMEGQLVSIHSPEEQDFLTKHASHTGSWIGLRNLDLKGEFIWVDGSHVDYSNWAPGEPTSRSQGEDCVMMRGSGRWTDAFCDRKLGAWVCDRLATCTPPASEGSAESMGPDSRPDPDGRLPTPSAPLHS
Description: flow cytometry, transfected 293T cells, 50 µg/ml.

For assay [8], the target named is T2, MAG expressed on cells. Put plainly: flow cytometry, transfected 293T cells, 50 µg/ml.
Assay [9] has as its target T7, FceRII expressed on cells. Put plainly: flow cytometry, transfected 293T cells, 50 µg/ml. The source holds these as a separate data set.
Assay [10] concerns the target T8, BR3 expressed on cells (human, UniProt Q96RJ3 1-184).
T8 construct: Clone of the Origene human cDNA library
T8 sequence: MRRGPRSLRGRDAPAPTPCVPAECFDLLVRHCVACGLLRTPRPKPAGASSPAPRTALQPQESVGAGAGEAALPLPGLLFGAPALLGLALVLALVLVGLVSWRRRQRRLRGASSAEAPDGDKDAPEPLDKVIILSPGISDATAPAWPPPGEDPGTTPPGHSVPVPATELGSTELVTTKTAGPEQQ
Description: flow cytometry, transfected 293T cells, 50 µg/ml.

Assay [11] concerns the target T6, CLEC4G expressed on cells. Put plainly: flow cytometry, transfected 293T cells.
The target in assay [12] is T3, LRRTM4 expressed on cells. Description: flow cytometry, transfected 293T cells. This is another data set of the same source.
The target of assay [13] is T9, mouse CD99 expressed on 293T cells (mouse, UniProt Q8VCN6 29-175, sialylated O-glycans at Thr-45 and Thr-50 (cited as relevant for PILRα recognition)).
T9 construct: whole, on cells; also called mCD99; mCD99 transfectants
T9 sequence (looked up): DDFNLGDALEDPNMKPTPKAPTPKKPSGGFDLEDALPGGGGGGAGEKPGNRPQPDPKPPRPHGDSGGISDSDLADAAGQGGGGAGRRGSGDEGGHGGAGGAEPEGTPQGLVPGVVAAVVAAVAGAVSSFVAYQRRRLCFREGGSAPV
Put plainly: flow cytometry, transfected 293T cells.

Assay [14] concerns the target T10, human NPDC1 expressed on cells (human, UniProt Q9NQX5 35-325).
T10 construct: also called hNPDC1; hNPCD1
T10 sequence: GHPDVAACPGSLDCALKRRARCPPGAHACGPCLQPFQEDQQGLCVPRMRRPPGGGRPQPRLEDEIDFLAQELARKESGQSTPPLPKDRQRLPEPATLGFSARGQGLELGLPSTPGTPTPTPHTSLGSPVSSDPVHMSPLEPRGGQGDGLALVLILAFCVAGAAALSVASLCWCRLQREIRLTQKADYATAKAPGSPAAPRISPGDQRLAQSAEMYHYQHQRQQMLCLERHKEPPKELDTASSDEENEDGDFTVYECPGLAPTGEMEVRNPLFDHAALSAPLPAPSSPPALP
Put plainly: flow cytometry, transfected 293T cells.

Assay [15] deals with T8, BR3 expressed on cells. Put plainly: flow cytometry, transfected 293T cells.
The target in assay [16] is T4, IL-2Ra expressed on cells. Put plainly: flow cytometry, transfected 293T cells. This is another data set of the same source.
Assay [17] deals with T5, PSS8 expressed on cells. Put plainly: flow cytometry, transfected 293T cells. This is another data set of the same source.
Assay [18] addresses T2, MAG expressed on cells. Put plainly: flow cytometry, transfected 293T cells, 2 µg/ml.
Assay [19] concerns the target T3, LRRTM4 expressed on cells. Description: flow cytometry, transfected 293T cells, 2 µg/ml.
Assay [20] has as its target T2, MAG expressed on cells. Description: flow cytometry, transfected 293T cells, 50 µg/ml. The source holds these as a separate data set.
For assay [21], the target named is T8, BR3 expressed on cells. Description: flow cytometry, transfected 293T cells, 2 µg/ml.
For assay [22], the target named is T5, PSS8 expressed on cells. Put plainly: flow cytometry, transfected 293T cells, 2 µg/ml.
A further assay has as its target T11, mCD99-Fc (mouse, UniProt Q8VCN6 29-137, limits assumed, three O-glycans NeuAc1-2Hex1HexNAc1).
T11 construct: also called mouse CD99-Fc; mCD99 (SPR analyte); not shown: Fc
T11 sequence (looked up): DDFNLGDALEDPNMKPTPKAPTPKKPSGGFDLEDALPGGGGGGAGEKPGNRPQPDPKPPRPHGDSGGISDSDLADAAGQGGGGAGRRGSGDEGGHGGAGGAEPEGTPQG
Description: SPR, hPILRα R126A-Fc immobilized, response difference.

In a further assay the target is T12, hCOLEC12-his (human, UniProt Q5KU26 59-742, sialylated O-glycans and N-glycans).
T12 construct: Whole entry named; also called human COLEC12-his; hCOLEC12 (SPR); not shown: his tag
The assay is described as above.

For assay [23], the target named is T1, human COLEC12 expressed on cells. Description: flow cytometry, transfected 293T cells, ligand-expressing cells gated.
The target in assay [24] is T13, HSV1 glycoprotein B expressed on 293T cells (herpes simplex virus type 1, UniProt P10211 31-904).
T13 construct: whole, on cells; also called HSV-1 gB; HSV1 gB
The description is as above.

T3 sequence (Q86VH4 31-590 limits assumed): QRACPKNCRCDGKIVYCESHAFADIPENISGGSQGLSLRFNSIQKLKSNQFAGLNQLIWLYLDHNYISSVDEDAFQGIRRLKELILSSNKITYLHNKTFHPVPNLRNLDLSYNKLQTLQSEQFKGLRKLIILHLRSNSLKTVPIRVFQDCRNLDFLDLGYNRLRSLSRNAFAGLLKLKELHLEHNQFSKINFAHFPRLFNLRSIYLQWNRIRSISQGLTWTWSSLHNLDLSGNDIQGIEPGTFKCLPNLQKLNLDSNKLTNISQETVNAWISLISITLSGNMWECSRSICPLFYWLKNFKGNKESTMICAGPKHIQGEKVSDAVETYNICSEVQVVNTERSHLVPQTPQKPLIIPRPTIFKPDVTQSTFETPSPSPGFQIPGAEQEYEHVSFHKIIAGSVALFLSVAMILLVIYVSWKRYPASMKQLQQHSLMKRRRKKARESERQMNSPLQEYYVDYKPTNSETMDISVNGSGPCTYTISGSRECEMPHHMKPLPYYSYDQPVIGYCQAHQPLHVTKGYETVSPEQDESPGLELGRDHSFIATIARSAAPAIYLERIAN
T5 sequence (Q16651 30-343 limits assumed): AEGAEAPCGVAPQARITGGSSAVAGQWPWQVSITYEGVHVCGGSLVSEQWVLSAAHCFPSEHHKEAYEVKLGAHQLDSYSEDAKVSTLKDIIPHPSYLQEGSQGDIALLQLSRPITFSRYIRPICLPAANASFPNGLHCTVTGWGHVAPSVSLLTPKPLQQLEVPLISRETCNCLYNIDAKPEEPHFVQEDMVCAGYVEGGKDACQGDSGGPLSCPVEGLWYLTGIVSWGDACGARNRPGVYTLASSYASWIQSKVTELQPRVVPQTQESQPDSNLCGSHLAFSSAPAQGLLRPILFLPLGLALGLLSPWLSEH
T1 sequence (Q5KU26 whole entry S522P/G606S): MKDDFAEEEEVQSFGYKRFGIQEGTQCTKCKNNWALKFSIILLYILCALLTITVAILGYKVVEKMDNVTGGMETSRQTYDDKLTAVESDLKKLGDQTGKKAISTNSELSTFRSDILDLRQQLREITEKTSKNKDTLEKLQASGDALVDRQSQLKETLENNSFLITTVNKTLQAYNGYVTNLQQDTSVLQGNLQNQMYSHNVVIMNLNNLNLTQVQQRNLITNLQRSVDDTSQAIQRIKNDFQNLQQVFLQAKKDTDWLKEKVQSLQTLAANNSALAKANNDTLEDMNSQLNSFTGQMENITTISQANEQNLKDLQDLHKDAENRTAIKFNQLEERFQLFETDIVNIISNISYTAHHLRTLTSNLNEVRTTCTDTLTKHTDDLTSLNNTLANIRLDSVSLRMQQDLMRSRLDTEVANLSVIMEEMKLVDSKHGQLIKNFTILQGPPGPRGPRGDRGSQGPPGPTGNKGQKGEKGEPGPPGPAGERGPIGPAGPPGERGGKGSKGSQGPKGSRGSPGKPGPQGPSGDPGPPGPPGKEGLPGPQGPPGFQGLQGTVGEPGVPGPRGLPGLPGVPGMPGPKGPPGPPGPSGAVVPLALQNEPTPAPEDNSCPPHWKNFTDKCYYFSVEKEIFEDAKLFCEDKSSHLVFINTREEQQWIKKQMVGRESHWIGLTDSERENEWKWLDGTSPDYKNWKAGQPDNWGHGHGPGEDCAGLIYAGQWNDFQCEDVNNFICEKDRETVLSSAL
T12 sequence (Q5KU26 59-742 S522P/G606S limits assumed): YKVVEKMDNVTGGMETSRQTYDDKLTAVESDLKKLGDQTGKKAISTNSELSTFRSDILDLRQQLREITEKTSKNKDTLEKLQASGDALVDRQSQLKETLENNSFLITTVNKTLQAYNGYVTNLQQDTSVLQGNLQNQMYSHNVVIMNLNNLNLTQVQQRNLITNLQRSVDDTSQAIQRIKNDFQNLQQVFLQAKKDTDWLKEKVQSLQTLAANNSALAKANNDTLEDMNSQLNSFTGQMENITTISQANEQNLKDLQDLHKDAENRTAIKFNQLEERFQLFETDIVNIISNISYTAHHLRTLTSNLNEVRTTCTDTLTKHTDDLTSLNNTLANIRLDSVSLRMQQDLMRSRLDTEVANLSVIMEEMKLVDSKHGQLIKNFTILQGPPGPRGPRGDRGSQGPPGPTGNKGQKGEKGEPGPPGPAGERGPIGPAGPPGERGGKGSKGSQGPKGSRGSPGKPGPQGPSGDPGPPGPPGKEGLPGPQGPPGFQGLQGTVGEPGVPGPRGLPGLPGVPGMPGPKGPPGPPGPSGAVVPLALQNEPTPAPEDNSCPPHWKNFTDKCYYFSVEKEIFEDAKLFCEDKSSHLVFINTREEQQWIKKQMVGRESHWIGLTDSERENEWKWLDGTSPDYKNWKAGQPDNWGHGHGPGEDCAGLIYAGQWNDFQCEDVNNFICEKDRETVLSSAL

B1: mPILRβ (receptor)
chain: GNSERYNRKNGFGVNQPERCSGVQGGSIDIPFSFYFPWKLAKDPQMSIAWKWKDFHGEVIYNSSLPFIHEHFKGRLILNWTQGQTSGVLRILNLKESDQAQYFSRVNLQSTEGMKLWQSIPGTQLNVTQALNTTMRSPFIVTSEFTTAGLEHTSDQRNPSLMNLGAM
notes: also called Mouse PILR-beta
Turning to B1, the binding result (in assay [1]; in the assay with MAG expressed on cells [2]; in assay [3]; in [4]; in the assay with PSS8 expressed on cells [5]) was “no binding (tested: 50 µg/ml)” throughout. In addition, the “% cells in lower right quadrant” value in [6] was 27.4%; in assay [7] it was 3.98%; with MAG expressed on cells [8], 0.083%; in assay [9], 3.98%; in the assay with BR3 expressed on cells [10], 1.85%.

B2: hPILRαR126A-Fc (Fc fusion)
chain: QPSGSTGSGPSYLYGVTQPKHLSASMGGSVEIPFSFYYPWELATAPDVRISWRRGHFHRQSFYSTRPPSIHKDYVNRLFLNWTEGQKSGFLRISNLQKQDQSVYFCAVELDTRSSGRQQWQSIEGTKLSITQAVTTTTQRPSSMTTTWRLSSTTTTTGLRVTQGKRRSDSWHISLETA
notes: Arg mutant of hPILRα-Fc; also called hPILRα R126-Fc; mutant hPILRα; not shown: Fc of mouse IgG2a (PILRα-mIgG2a, called PILRα-Fc)
For the molecule B2, the binding result (in [11]; in assay [12]; in assay [13]; in assay [14]; with BR3 expressed on cells [15]; in assay [16]) was “no binding (tested: 50 µg/ml)” in each case. In addition, the binding result with PSS8 expressed on cells [17] is on record as “no binding (tested: 50 µg/ml)”; with mCD99-Fc, “no binding (tested: 1 µM)”; in the assay with hCOLEC12-his it was “no binding (tested: 1 µM)”; in assay [23], “no binding”; in assay [24] it was “no binding”. For the same molecule, the “% cells in lower right quadrant” value came out at 0.17% with MAG expressed on cells [18]; 0.11% in assay [19]; 12.5% with MAG expressed on cells [20]; 0.47% in the assay with BR3 expressed on cells [21]; 0.012% with PSS8 expressed on cells [22].
